We go through one molecule from patent publication US20250109209A1.

In test [1] the target is Cyno TL1A (cyno) (UniProt G7PRK8). The test is described as follows: SPR, representative sensorgram with Cyno TL1A. In general terms: Surface plasmon resonance follows binding to a sensor surface in real time, without labels.
The target in test [2] is human TL1A (human) (UniProt O95150). The experiment in a line: selectivity ELISA: antibody pre-incubated with TL1A, inhibition of TL1A binding to plate-coated DR3.
Chain of human TL1A (human) (O95150 72-251 limits assumed): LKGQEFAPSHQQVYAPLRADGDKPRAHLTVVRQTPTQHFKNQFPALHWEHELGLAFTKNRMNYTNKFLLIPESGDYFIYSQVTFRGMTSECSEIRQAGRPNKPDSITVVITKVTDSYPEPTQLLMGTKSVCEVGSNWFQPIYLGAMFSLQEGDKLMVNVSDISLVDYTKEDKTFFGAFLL
Test [3] shares this target. The test is described as follows: SPR, representative sensorgram with Human TL1A.
Test [4] shares this target. The test is described as follows: selectivity ELISA: antibody pre-incubated with TL1A, inhibition of TL1A binding to plate-coated DcR3.
The target in test [5] is Cyno TL1A (cyno) (UniProt G7PRK8). The experiment in a line: SPR, mAb format, average.
A further test has as its target mouse TL1A (mouse) (UniProt Q5UBV8). The test is described as follows: SPR, mAb format, average.
Test [6] concerns the target human TL1A (human) (UniProt O95150). The test is described as follows: SPR, mAb format, average.

Chain of Cyno TL1A (cyno) (G7PRK8 entry or part of it): as the sequence (O95150 72-251 limits assumed) above, with F39L, I78V counted along it
Chain of mouse TL1A (mouse) (Q5UBV8 76-252 V180M/M218T limits assumed): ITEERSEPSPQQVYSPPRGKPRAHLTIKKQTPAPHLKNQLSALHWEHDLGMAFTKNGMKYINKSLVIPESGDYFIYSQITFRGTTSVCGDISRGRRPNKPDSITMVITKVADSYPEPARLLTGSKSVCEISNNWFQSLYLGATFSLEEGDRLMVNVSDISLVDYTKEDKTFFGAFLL

B1: Heron2B (antibody, INN chains, looked up, V domains shown)
VH: QVQLVQSGAEVKKPGASVKVSCKASGFDIQDTYMHWVKQRPGQGLEWMGRIDPASGHTKYDPKFQVRVTITRDTSTSTVYLELSSLRSEDTAVYYCARSGGLPDVWGQGTTVTVSS
VL: EIVLTQSPGTLSLSPGERATLSCRASSSVSYMYWYQQKPGQAPRPLIYATSNLASGIPDRFSGSGSGTDFTLTISRLEPEDFAVYYCQQWEGNPRTFGGGTKLEIK
In the case of B1, the dissociation constant (Kd) with Cyno TL1A (cyno) [1] stood at 0.114 nM; in the test with human TL1A (human) [3], 0.339 nM; with Cyno TL1A (cyno) [5], 0.09 nM; in the test with mouse TL1A (mouse), 81900 nM; with human TL1A (human) [6], 0.365 nM. Besides, the IC50 with human TL1A (human) [2] was found to be 6.3 mg/L; with human TL1A (human) [4], 3.6 mg/L.

The Kd is a measure of binding affinity in units of concentration. Read a low Kd as a tighter complex. A word on the IC50: it is the concentration at which inhibition is half-maximal. A high value points to lower potency.
